Measurements: the supplement of paper PMC9170038

Test system: MS2 coat protein
Test: apparent KD of MS2 coat protein; designed switch direction (-1 OFF switch, 1 ON switch): 1; higher = weaker reporter binding
Outline: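 On Illumina chips, designed RNA switches with common flanks were made by stalled E. coli RNA polymerase. Titrations with SNAP-549-labelled MS2 coat protein, doubling from 0.7 or 1.5 nM to 3 µM, were done with no input, with 200 uM small-molecule ligand, or with an oligonucleotide input. Apparent KD is the median per design over clusters, from curve fits of normalised cluster fluorescence.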

[1] = input ligand: microRNA oligo, concentration not stated
[2] = Eterna round: R95, input ligand: FMN 200 uM
[3] = Eterna round: R95, input ligand: microRNA oligo, concentration not stated
[4] = Eterna round: R95, input ligand: none

AGAAGACAUGAGGAUCACCCAUGUACCUCAUAAGGAGAGAGCGAGGAUAUGUAGAGAGAGAGGGAACAGAAGGUGUGAGAGGAA [Default title] (Eterna round: R96, puzzle: Same State NG 3)
apparent KD of MS2 coat protein (input ligand: FMN 200 uM): 218 nM | apparent KD of MS2 coat protein [1]: 99.4 nM | apparent KD of MS2 coat protein (input ligand: none): 161 nM

AGAGAACAUGAGGAUCACCCAUGUGGGAGAAACAUAGGAUAUAGGAGAGAGAGGGAGGAGCUAGAAGGAUGAUGGA [JR_SS1_Sub082] (puzzle: Same State 1)
apparent KD of MS2 coat protein [2]: 80.5 nM | apparent KD of MS2 coat protein [3]: 91.1 nM | apparent KD of MS2 coat protein [4]: 105 nM

AGAGGAAGGGCAGGAUAUACGACGGAGGACGAGGUAGAAGGGUCCAUGUGAUAACAUGAGGAUCACCCAUGUACCGCGCGACGA [AK SSNG1-V2-18] (Eterna round: R96, puzzle: Same State NG 1)
apparent KD of MS2 coat protein (input ligand: FMN 200 uM): 147 nM | apparent KD of MS2 coat protein [1]: 43.1 nM | apparent KD of MS2 coat protein (input ligand: none): 832 nM

AGAGGAGGAGCAGGAUAUUCGAAGAAGGACGUGGAAGAAGGGUUCAUGCGAUGACAUGAGGAUCACCCAUGUACCGCGCGAGGA [AK SSNG1-V2-12] (Eterna round: R96, puzzle: Same State NG 1)
apparent KD of MS2 coat protein (input ligand: FMN 200 uM): 63.4 nM | apparent KD of MS2 coat protein [1]: 42.6 nM | apparent KD of MS2 coat protein (input ligand: none): 69 nM

AGAGUGUAUCCACAGGAUAUGCGAGCCGACACAUGAGGAUCACCCAUGUAGUCCUAAAGGGCUGAGCAGAAGGGUGGUAAGGCUC [Xelear] (puzzle: Same State 2)
apparent KD of MS2 coat protein [2]: 31.7 nM | apparent KD of MS2 coat protein [3]: 169 nM | apparent KD of MS2 coat protein [4]: 285 nM

AGAUAGUGUGGAAAGGAUAUACGGUUGAGGACAUGAGGAUCACCCAUGUAGUAGAGGAAGGAAGGGUAGAAGGUUCAGGAUUGAU [JR_SS2_Sub018] (puzzle: Same State 2)
apparent KD of MS2 coat protein [2]: 70.2 nM | apparent KD of MS2 coat protein [3]: 43.1 nM | apparent KD of MS2 coat protein [4]: 50.4 nM

AGAUCAUGACGAGGAUAUCCGACAUGAGGAUCACCCAUGUAUGUCGGAGGACGAAUACGUCCAAAGGAGAAGGCGUCGUGGUCA [Mat - Same State NG 2 - JL mod - D38] (Eterna round: R96, puzzle: Same State NG 2)
apparent KD of MS2 coat protein (input ligand: FMN 200 uM): 25.2 nM | apparent KD of MS2 coat protein [1]: 62.9 nM | apparent KD of MS2 coat protein (input ligand: none): 85.4 nM

AGAUCAUGACGAGGAUAUGGUACAUGAGGAUCACCCAUGUAUGUACUAUAACCCGUAUGAGGAAUCCAGAAGGCGUCGUGGUCA [JL SSNG2 1.17] (Eterna round: R96, puzzle: Same State NG 2)
apparent KD of MS2 coat protein (input ligand: FMN 200 uM): 23.8 nM | apparent KD of MS2 coat protein [1]: 71.8 nM | apparent KD of MS2 coat protein (input ligand: none): 85.9 nM

AGCCGAAGCACAGGAUAUACAUGUAUACAUGAGGAUCACCCAUGUAGCAACACGUGGUAGUGAUUGUAGAAGGGUGCUCGGCGC [Omei SS(NG)2 Cv14] (Eterna round: R96, puzzle: Same State NG 2)
apparent KD of MS2 coat protein (input ligand: FMN 200 uM): 21.3 nM | apparent KD of MS2 coat protein [1]: 16 nM | apparent KD of MS2 coat protein (input ligand: none): 25.3 nM

AGCCGAGACGCAGGAUAUAGAUAUCUACAUGAGGAUCACCCAUGUAGCAACACGUGGUAGUGAUUCUAGAAGGGUGCUCGGCGC [Omei SS(NG)2 Cv7] (Eterna round: R96, puzzle: Same State NG 2)
apparent KD of MS2 coat protein (input ligand: FMN 200 uM): 44.9 nM | apparent KD of MS2 coat protein [1]: 322 nM | apparent KD of MS2 coat protein (input ligand: none): 504 nM

AGCCGAGACUGAGGAUAUUUAAAUCUACAUGAGGAUCACCCAUGUAACAACACGUGGUAGUGAUUGAAGAAGGCGGCUCGGCGC [Omei SS(NG)2 Cv2] (Eterna round: R96, puzzle: Same State NG 2)
apparent KD of MS2 coat protein (input ligand: FMN 200 uM): 177 nM | apparent KD of MS2 coat protein [1]: 406 nM | apparent KD of MS2 coat protein (input ligand: none): 404 nM

AGCCGAGACUGAGGAUAUUUUAAUCUACAUGAGGAUCACCCAUGUAACAACACGUGGUAUUGAUAGAAGAAGGCGGCUCGGCGC [Omei SS(NG)2 C] (Eterna round: R96, puzzle: Same State NG 2)
apparent KD of MS2 coat protein (input ligand: FMN 200 uM): 24.3 nM | apparent KD of MS2 coat protein [1]: 50.4 nM | apparent KD of MS2 coat protein (input ligand: none): 64 nM

AGCGCGGUCUCGCAGGAUAUCCACAAUCCUACAUGAGGAUCACCCAUGUCGCUGCAGGAUAUUAGGGAGAAGGGUGAUGCCGCGC [Riorge] (puzzle: Same State 2)
apparent KD of MS2 coat protein [3]: 25.2 nM

AGCUAGGUGGCAGGAUAUGGGCACACCUACAUGAGGAUCACCCAUGUCUAAAGGUUGCAAAAGGACCAGAAGGGCCACGCUAGC [Onzaislege] (Eterna round: R96, puzzle: Same State NG 2)
apparent KD of MS2 coat protein (input ligand: FMN 200 uM): 19.2 nM | apparent KD of MS2 coat protein [1]: 82.7 nM | apparent KD of MS2 coat protein (input ligand: none): 178 nM

AGCUAGUACCAAGGAUAUACGAACAUGAGGAUCACCCAUGUAUACAUGGUUUAAUGAGACUACAUGUAGAAGGUGGUACUAGCA [SameState NG2 #12] (Eterna round: R96, puzzle: Same State NG 2)
apparent KD of MS2 coat protein (input ligand: FMN 200 uM): 387 nM | apparent KD of MS2 coat protein [1]: 338 nM | apparent KD of MS2 coat protein (input ligand: none): 538 nM

AGCUAGUACCGAGGAUAUACAUACAUGAGGAUCACCCAUGUAUACAUGAAAUAAUGAGACUACAUGUAGAAGGCGGUACUAGCA [Mat - Same State NG 2 - JL mod - D45] (Eterna round: R96, puzzle: Same State NG 2)
apparent KD of MS2 coat protein (input ligand: FMN 200 uM): 16.9 nM | apparent KD of MS2 coat protein [1]: 43.5 nM | apparent KD of MS2 coat protein (input ligand: none): 63.4 nM

AGCUAGUACCGAGGAUAUACGAACAUGAGGAUCACCCAUGUAUACAUGGUUUAAUGAGACUACAUGUAGAAGGCGGUACUAGCA [SameState NG2 #11] (Eterna round: R96, puzzle: Same State NG 2)
apparent KD of MS2 coat protein (input ligand: FMN 200 uM): 1110 nM | apparent KD of MS2 coat protein [1]: 281 nM | apparent KD of MS2 coat protein (input ligand: none): 624 nM

AGCUAGUACGAAGGAUAUACAAACAUGAGGAUCACCCAUGUAUACAUGGUUUGUUGUGACUACAUGUAGAAGGUCGUACUAGCA [SameState NG2 #16] (Eterna round: R96, puzzle: Same State NG 2)
apparent KD of MS2 coat protein (input ligand: FMN 200 uM): 362 nM | apparent KD of MS2 coat protein [1]: 773 nM | apparent KD of MS2 coat protein (input ligand: none): 987 nM

AGCUAUCGAAAACGAUAGCAAAAGCAUGUACAUGAGGAUCACCCAUGUCAUGUACAGGCUUUUUGCUCGUCUUAAAA [Zipper 23 - 8] (puzzle: Sensor for hsa-mir-208a)
apparent KD of MS2 coat protein [2]: 26.4 nM | apparent KD of MS2 coat protein [3]: 18.3 nM | apparent KD of MS2 coat protein [4]: 124 nM

AGCUAUCGAAAACGAUAGCAAAAGCAUGUACAUGAGGAUCACCCAUGUCGUGUACAAGCUUUUUGCUCGUCUUAAAA [Zipper 23 - 5] (puzzle: Sensor for hsa-mir-208a)
apparent KD of MS2 coat protein [2]: 522 nM | apparent KD of MS2 coat protein [3]: 13.9 nM | apparent KD of MS2 coat protein [4]: 534 nM

AGCUAUCGCGUACGAUAGCUGAAGCGUGUACAUGAGGAUCACCCAUGUCAUGUACAAGCUUUUUGCUCGUCUUAUUG [JL-shm-2.28 JL mod] (puzzle: Sensor for hsa-mir-208a)
apparent KD of MS2 coat protein [2]: 249 nM | apparent KD of MS2 coat protein [3]: 18.2 nM | apparent KD of MS2 coat protein [4]: 296 nM

AGCUAUGGAAAACUAUAGCAAAAGUAUGUACAUGAGGAUCACCCAUGUCAUGUACAAGCUUUUUGCUCGUCUUAAAA [ak 6 mod of one Eli's designs.] (puzzle: Sensor for hsa-mir-208a)
apparent KD of MS2 coat protein [2]: 201 nM | apparent KD of MS2 coat protein [3]: 18.6 nM | apparent KD of MS2 coat protein [4]: 189 nM

AGCUAUUAAUCAGGAUAUAGUGACAUGAGGAUCACCCAUGUAUUGAUGAUUAAAUGUGGUCACUACUAGAAGGGAUUACUAACA [SameState NG2 #49] (Eterna round: R96, puzzle: Same State NG 2)
apparent KD of MS2 coat protein (input ligand: FMN 200 uM): 37 nM | apparent KD of MS2 coat protein [1]: 51.4 nM | apparent KD of MS2 coat protein (input ligand: none): 67.1 nM

AGCUAUUAAUCAGGAUAUGGUGACAUGAGGAUCACCCAUGUAUUGAUGAUUAAAUGUGGUCACUACCAGAAGGGAUUACUAACA [SameState NG2 #50] (Eterna round: R96, puzzle: Same State NG 2)
apparent KD of MS2 coat protein (input ligand: FMN 200 uM): 34.2 nM | apparent KD of MS2 coat protein [1]: 221 nM | apparent KD of MS2 coat protein (input ligand: none): 260 nM

AGCUUUUAAUUAGGAUAUGGUCACAUGAGGAUCACCCAUGUAACGAUGAUAUAAUGUGGUCAAGACUAGAAGGGAUUGCUAACA [SameState NG2 #68] (Eterna round: R96, puzzle: Same State NG 2)
apparent KD of MS2 coat protein (input ligand: FMN 200 uM): 589 nM | apparent KD of MS2 coat protein [1]: 357 nM | apparent KD of MS2 coat protein (input ligand: none): 355 nM

AGGAAACAUGAGGAUCACCCAUGUAAAAAAGUGGGAGGAUAUACUAGAAGAAACAAAAUAGUAGAAGGCCUAAAAA [75%, Ex sub1, 32] (Eterna round: R96, puzzle: Same State 1)
apparent KD of MS2 coat protein (input ligand: FMN 200 uM): 19.1 nM | apparent KD of MS2 coat protein [1]: 37.7 nM | apparent KD of MS2 coat protein (input ligand: none): 42.3 nM

AGGAAACAUGAGGAUCACCCAUGUAAAAAUAUGGGAGGAUAUGCGAAAAGAAACAAAGAAGCAGAAGGCCUAAGAA [75%, Ex5 sub 1, 7] (Eterna round: R96, puzzle: Same State 1)
apparent KD of MS2 coat protein [1]: 85.7 nM

AGGAGACAUGAGGAUCACCCAUGUACUUCAUAAGGAGAGAACGAGGAUAUGUAGAGAGAGAGGGAACAGAAGGUGUGAGAGGAA [Default title] (Eterna round: R96, puzzle: Same State NG 3)
apparent KD of MS2 coat protein (input ligand: FMN 200 uM): 18.7 nM | apparent KD of MS2 coat protein [1]: 16.2 nM | apparent KD of MS2 coat protein (input ligand: none): 18.7 nM

AGGCUCAGACGAGGAUAUAUGUGGUCACAUGAGGAUCACCCAUGUCUCGAGCUUCGGCUCGAGGCAUAGAAGGUGUCUGAGCCA [SSNG2/5-C1] (Eterna round: R96, puzzle: Same State NG 2)
apparent KD of MS2 coat protein (input ligand: FMN 200 uM): 115 nM | apparent KD of MS2 coat protein [1]: 42.5 nM | apparent KD of MS2 coat protein (input ligand: none): 25.7 nM

AGGCUCAGAGCAGGAUAUAUGUGAUCACAUGAGGAUCACCCAUGUCUCGAGCUUCGGCUCGAGACAUAGAAGGGCUCUGAGCCA [SSNG2/3-B1] (Eterna round: R96, puzzle: Same State NG 2)
apparent KD of MS2 coat protein (input ligand: FMN 200 uM): 2490 nM | apparent KD of MS2 coat protein [1]: 39.3 nM | apparent KD of MS2 coat protein (input ligand: none): 28.3 nM

AGGUGAUAUGGAAAGGAUAUACGGUUUAGGACAUGAGGAUCACCCAUGUGGAAGAUGGCGAGAGAGUAGAAGGUUCGAAAUUGGU [JR_SS@_Sub024] (puzzle: Same State 2)
apparent KD of MS2 coat protein [2]: 43.4 nM | apparent KD of MS2 coat protein [3]: 75 nM | apparent KD of MS2 coat protein [4]: 77.4 nM
